Results as given in patent US20260263521A1, “ANTI-CD200R1 ANTIBODY AND USE THEREOF” (AIMED BIO INC., priority 2023, published 2026).

What was measured:
[1] = target: T1, human CD200R1 (Homo sapiens, UniProt Q8TD46); assay: ELISA binding to human CD200R1; settings: ELISA, Example 14
T1 sequence (Q8TD46 25-348): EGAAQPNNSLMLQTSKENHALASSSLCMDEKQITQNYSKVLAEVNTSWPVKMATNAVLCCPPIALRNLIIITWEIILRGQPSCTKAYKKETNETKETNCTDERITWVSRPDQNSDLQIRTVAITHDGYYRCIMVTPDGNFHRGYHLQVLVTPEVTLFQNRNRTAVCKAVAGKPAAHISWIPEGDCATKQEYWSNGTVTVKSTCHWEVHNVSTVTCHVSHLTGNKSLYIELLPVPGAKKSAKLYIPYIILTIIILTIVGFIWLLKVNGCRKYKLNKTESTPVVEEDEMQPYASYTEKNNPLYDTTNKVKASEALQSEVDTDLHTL
Description: 96-well plates were coated with human CD200R1 (R&D systems, 3414-CD) and mouse CD200R1 protein (R&D systems, 2554-CD) at a concentration of 2 μg/mL at 4° C. for 16 hours and then were blocked with 3% skim milk. The result was treated with the antibodies at concentrations of 300 nM, 60 nM, 12 nM, 2.4 nM, 0.48 nM, 0.096 nM, and 0.0192 nM, and reacted at room temperature for 2 hours.
The result was washed with PBST and distilled water, the samples were bound with a goat-derived HRP-conjugated anti-human antibody (Invitrogen, 31482, Goat anti-Human IgG F(ab′)2 Secondary Antibody, HRP) for 1 hour at room temperature, and then washed again with PBST and distilled water. Color was developed with a TMB substrate solution (Thermo Scientific, 34029, 1-Step™ TMB-ELISA Ultra Substrate Solution). The color reaction was stopped with stop solution (Invitrogen, SS04, ELISA Stop Solution). The absorbance was measured at an optical density of 450 nm.

[2] = system: monkey CD200R1; assay: ELISA binding to monkey CD200R1; settings: Example 14
From the text: Therefore, the LC D51 and LC D92 sequences were not substituted during the optimization process. However, since LC N30 and LC N31 can play an important role in the specific binding of antibodies as paratopes, the sequences were substituted and optimized. Through rational design, LC S52 and LC S94 were substituted with K and R, respectively, to derive P001009v1, and LC S52 and LC D93 were substituted with K and R, respectively, to derive P001009v2. Further, P001009v3, in which LC N30 was substituted with S, and P001009v4, in which LC N31 was substituted with K, were derived and produced, and the binding ability to human, mouse, and monkey CD200R1 was analyzed by ELISA (FIG. 15). […] Both […] and variants thereof had very weak binding ability to mouse CD200R1 at concentrations up to 300 nM.

[3] = target: T1, human CD200R1; assay: SPR binding kinetics, human CD200R1; settings: hCD200R1-his captured on anti-His CM5 chip, 1:1 Langmuir fit
Description: (§1) The CD200R1-specific binding ability of the antibodies (P001009 wt, P001009 v1, P001009 v2, P001009 v3, P001009 v4) selected in Example 14 was analyzed using surface plasma resonance (SPR). For the experiment, 30 μg/mL of an anti-histidine antibody was conjugated to a CM5 biacore chip via an amine bond while allowing to flow at 10 μl/min (10,000 RU). Then, 0.25 μg/mL of human or cynomolgus CD200R1 with dual His-tags was captured onto the completed chip for 60 seconds, and the binding ability of each antibody was analyzed. All experiments were performed by association of antibodies for 120 seconds and dissociation of antibodies for 600 seconds. The resulting graphs were fitted using a 1:1 Langmuir binding kinetic model (FIG. 16), and the kinetics of each antibody were calculated.

[4] = system: cynomolgus CD200R1; assay: SPR binding kinetics, cynomolgus CD200R1; settings: cynomolgus CD200R1-his captured on anti-His CM5 chip, 1:1 Langmuir fit
Description: as §1

Molecule | binding ability to human CD200R1 compared to parent [1] | binding ability to monkey CD200R1 compared to parent [2] | Ka [3] [M⁻¹ s⁻¹] | Ka [4] [M⁻¹ s⁻¹]
P001009v2: P001009 variant, LC S52 and LC D93 substituted with K and R; VH SEQ ID NO: 79 (antibody, V domains shown) VH: EVQLLESGGGLVQPGGSLRLSCAASGFTFSSYDMSWVRQAPGKGLEWVSWISHGGGSIYYADSVKGRFTISRDNSKNTLYLQMNSLRAEDTAVYYCARDAPAYSAPLFDYWGQGTLVTVSS VL: QSVLTQPPSASGTPGQRVTISCSGSSSNIGNNAVNWYQQLPGTAPKLLIYYDKNRPSGVPDRFSGSKSGTSASLAISGLRSEDEADYYCAAWDRSLSGYVFGGGTKLTVL | reduced | significantly improved | 7.52e+06 | 2.82e+06
P001009v4: P001009 variant, LC N31 substituted with K; VH SEQ ID NO: 79 (antibody, V domains shown) VH: EVQLLESGGGLVQPGGSLRLSCAASGFTFSSYDMSWVRQAPGKGLEWVSWISHGGGSIYYADSVKGRFTISRDNSKNTLYLQMNSLRAEDTAVYYCARDAPAYSAPLFDYWGQGTLVTVSS VL: QSVLTQPPSASGTPGQRVTISCSGSSSNIGNKAVNWYQQLPGTAPKLLIYYDSNRPSGVPDRFSGSKSGTSASLAISGLRSEDEADYYCAAWDDSLSGYVFGGGTKLTVL | reduced | improved | 6.74e+06 | 3.71e+06
